From the supplement of paper PMC10065799, “High-throughput profiling of sequence recognition by tyrosine kinases and SH2 domains using bacterial peptide display” (eLife, 2023)

Assays:
AncSZ = test: phosphorylation enrichment, bacterial display (enrichment ratio); higher = better substrate or ligand; peptides without Tyr show the background
EPHB1 = EPHB1 (UniProt P54762); test: as above
EPHB2 = EPHB2 (UniProt P29323); test: as above
FGFR1 = FGFR1 (UniProt P11362); test: as above
FGFR3 = FGFR3 (UniProt P22607); test: as above
Fer (mouse) = test: as above
Fes = Fes (UniProt P07332); test: as above
Fyn = Fyn (UniProt P06241); test: as above
Hck = Hck (UniProt P08631); test: as above
Jak2 = Jak2 (UniProt O60674); test: as above
MERTK = MERTK (UniProt Q12866); test: as above
c-Abl (mouse) = test: as above
c-Src = test: as above
Grb2 SH2 = Grb2 SH2 (UniProt P62993); test: SH2 binding enrichment of the phosphorylated peptide, bacterial display (enrichment ratio); higher = better substrate or ligand; peptides without Tyr show the background
SHP2-C SH2 = test: as above
c-Src SH2 = test: as above
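Throughout, for SH2 binding enrichment of the phosphorylated peptide, bacterial display: peptide library displayed on the E. coli surface as eCPX fusions, selected cells deep-sequenced, score is each peptide's frequency after selection divided by its frequency in the input.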
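Throughout, for phosphorylation enrichment, bacterial display: 11-residue human phosphosite peptides and single-mutation variants displayed on the E. coli surface, counted by deep sequencing, each peptide's frequency after selection divided by its frequency in the unselected input library; frequency after pTyr selection over input frequency; kinase dosed for 20-30% of maximal phosphorylation in three min.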

Sequence of Hck (P08631 whole entry, looked up): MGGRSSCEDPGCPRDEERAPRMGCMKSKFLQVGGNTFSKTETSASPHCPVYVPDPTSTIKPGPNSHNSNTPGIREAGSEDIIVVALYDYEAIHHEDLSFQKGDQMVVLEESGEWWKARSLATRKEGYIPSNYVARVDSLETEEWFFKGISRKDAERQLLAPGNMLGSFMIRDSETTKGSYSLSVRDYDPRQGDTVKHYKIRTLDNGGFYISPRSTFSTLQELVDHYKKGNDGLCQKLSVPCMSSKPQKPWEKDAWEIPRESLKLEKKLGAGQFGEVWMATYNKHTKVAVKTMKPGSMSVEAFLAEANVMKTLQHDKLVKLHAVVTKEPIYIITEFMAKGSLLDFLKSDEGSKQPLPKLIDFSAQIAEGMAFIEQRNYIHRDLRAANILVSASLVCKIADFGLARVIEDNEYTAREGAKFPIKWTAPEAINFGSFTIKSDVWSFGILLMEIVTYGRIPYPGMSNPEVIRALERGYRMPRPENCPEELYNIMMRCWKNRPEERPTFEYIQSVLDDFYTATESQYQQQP
Sequence of Jak2 (O60674 whole entry, looked up): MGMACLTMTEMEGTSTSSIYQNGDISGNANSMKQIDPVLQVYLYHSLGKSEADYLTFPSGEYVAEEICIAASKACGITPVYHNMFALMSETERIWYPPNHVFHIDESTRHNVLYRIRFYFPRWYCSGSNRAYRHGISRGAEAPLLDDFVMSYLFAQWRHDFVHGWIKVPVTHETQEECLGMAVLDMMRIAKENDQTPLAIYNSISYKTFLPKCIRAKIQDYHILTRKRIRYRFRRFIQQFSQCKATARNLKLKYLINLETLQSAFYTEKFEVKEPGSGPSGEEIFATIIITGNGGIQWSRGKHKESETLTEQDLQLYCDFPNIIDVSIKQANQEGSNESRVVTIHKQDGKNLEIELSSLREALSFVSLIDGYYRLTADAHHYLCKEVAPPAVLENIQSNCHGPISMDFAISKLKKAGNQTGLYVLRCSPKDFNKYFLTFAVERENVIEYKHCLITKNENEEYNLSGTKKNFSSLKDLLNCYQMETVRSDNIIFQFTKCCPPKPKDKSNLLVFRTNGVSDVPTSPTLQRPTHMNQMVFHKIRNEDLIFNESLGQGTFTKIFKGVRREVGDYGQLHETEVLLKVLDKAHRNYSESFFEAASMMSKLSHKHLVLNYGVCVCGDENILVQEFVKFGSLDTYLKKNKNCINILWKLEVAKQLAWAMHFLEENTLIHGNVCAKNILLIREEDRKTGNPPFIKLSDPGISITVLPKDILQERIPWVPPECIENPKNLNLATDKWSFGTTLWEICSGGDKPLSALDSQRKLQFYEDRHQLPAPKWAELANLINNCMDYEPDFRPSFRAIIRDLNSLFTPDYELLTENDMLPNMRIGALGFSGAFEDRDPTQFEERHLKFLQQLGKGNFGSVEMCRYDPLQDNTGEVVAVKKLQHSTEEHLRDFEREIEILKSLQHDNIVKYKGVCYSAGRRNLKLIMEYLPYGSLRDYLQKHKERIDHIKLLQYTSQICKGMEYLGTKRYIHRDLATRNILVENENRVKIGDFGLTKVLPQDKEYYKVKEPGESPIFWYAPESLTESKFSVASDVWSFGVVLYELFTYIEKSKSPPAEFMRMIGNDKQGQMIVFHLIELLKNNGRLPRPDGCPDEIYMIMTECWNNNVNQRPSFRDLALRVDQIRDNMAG
Sequence of FGFR3 (P22607 whole entry, looked up): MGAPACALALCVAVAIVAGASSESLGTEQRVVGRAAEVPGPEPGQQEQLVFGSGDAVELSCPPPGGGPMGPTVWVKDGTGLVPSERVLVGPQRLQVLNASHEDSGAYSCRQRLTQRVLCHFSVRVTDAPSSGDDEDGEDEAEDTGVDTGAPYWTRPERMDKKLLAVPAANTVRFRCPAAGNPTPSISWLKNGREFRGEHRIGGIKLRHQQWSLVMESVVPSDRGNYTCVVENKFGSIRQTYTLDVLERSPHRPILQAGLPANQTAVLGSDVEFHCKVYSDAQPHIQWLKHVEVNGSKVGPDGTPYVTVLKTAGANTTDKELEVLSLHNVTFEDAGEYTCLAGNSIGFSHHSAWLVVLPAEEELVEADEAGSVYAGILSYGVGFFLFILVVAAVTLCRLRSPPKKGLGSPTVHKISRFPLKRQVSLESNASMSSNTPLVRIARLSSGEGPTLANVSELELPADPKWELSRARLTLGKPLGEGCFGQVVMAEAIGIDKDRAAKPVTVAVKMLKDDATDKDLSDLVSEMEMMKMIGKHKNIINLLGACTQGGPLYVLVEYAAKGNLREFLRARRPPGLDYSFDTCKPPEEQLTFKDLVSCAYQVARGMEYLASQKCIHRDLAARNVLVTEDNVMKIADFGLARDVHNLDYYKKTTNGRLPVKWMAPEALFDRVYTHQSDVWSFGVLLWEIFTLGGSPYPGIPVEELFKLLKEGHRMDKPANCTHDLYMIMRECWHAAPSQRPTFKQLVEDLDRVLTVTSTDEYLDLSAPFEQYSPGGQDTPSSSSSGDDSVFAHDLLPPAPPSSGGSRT
Sequence of EPHB1 (P54762 whole entry, looked up): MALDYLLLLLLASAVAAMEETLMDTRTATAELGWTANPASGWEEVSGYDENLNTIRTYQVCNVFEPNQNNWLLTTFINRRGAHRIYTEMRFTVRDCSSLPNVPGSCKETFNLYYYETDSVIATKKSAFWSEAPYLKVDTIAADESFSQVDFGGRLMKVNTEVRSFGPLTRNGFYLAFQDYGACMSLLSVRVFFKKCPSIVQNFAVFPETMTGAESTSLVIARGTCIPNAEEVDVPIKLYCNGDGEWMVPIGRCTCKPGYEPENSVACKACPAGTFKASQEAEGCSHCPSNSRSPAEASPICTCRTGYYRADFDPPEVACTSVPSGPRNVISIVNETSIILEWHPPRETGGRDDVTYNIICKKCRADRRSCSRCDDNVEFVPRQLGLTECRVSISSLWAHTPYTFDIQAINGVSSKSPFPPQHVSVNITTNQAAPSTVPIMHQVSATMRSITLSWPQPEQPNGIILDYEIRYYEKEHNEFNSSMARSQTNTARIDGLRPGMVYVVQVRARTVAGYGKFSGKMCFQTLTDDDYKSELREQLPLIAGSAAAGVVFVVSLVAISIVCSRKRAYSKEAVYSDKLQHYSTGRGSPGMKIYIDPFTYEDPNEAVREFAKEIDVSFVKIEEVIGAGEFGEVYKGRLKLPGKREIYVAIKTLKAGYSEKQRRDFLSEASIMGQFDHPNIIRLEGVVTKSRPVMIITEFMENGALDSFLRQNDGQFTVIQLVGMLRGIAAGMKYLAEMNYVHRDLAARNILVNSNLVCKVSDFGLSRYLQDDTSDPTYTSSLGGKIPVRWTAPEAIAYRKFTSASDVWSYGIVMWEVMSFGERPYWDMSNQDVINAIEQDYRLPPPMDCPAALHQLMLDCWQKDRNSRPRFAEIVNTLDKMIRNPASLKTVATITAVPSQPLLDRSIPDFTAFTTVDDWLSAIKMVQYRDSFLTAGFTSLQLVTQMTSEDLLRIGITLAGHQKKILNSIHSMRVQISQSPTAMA
Sequence of Grb2 SH2 (P62993 whole entry, looked up): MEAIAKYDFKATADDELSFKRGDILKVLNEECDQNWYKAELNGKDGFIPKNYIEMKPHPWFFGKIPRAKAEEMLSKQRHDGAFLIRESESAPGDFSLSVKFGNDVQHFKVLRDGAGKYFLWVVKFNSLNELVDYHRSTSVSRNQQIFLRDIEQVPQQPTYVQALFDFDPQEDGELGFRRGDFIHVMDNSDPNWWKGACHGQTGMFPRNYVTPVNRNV
Sequence of Fes (P07332 whole entry, looked up): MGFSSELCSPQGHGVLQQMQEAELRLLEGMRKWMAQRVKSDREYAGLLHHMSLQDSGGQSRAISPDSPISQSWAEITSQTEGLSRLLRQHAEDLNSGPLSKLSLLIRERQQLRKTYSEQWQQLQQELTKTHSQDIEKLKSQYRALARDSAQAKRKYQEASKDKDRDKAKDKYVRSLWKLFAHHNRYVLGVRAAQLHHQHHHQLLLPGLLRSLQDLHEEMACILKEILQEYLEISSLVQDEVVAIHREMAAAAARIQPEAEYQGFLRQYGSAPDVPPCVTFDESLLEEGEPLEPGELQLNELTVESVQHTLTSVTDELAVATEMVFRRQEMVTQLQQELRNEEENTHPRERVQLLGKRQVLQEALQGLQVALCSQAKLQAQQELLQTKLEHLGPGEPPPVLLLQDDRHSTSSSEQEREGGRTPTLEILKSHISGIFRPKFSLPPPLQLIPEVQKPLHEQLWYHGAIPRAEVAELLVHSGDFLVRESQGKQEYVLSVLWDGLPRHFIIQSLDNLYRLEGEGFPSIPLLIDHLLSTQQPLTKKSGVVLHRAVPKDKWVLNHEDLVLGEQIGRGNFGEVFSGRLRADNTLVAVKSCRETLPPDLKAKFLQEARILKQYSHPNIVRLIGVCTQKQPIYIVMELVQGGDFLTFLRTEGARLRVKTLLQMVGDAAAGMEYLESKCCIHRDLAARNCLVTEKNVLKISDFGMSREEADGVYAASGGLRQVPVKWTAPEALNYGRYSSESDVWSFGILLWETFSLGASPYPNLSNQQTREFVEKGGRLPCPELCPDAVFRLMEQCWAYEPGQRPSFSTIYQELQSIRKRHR
Sequence of Fyn (P06241 whole entry, looked up): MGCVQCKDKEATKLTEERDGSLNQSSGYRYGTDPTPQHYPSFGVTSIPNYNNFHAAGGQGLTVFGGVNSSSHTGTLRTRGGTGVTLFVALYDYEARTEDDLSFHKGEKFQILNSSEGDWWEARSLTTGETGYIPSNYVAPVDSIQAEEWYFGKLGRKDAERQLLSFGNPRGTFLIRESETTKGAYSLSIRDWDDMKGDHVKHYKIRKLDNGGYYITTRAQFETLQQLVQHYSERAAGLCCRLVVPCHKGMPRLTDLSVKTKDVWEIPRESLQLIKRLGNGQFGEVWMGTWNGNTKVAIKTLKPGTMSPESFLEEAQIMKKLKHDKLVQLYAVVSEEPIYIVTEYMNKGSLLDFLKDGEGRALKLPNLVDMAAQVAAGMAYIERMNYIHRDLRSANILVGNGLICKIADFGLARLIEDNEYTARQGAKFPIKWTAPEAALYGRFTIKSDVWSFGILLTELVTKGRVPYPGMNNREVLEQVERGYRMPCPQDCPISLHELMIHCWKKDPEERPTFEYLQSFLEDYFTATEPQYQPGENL

Sequence	phosphorylation enrichment (AncSZ)	phosphorylation enrichment (EPHB1)	phosphorylation enrichment (EPHB2)	phosphorylation enrichment (FGFR1)	phosphorylation enrichment (FGFR3)	phosphorylation enrichment (Fer (mouse))	phosphorylation enrichment (Fes)	phosphorylation enrichment (Fyn)	phosphorylation enrichment (Hck)	phosphorylation enrichment (Jak2)	phosphorylation enrichment (MERTK)	phosphorylation enrichment (c-Abl (mouse))	phosphorylation enrichment (c-Src)	SH2 binding enrichment (Grb2 SH2)	SH2 binding enrichment (SHP2-C SH2)	SH2 binding enrichment (c-Src SH2)
SSAAGYACLAY [MVD_Y131]	0.9	0.553	0.615	0.547	0.736	0.574	1.07	0.531	0.575	1.02	0.498	0.897	0.593	0.721	3.04	2.42
CCKNRYDKDKP [THAP1_Y14_G9C]	0.455	0.29	0.28	0.465	0.419	0.345	0.5	0.33	0.384	0.429	0.486	0.381	0.345	1.01	0.686	0.542
EKKDVYKTGEQ [CFH_Y1008_A1010T]	0.7	0.394	0.411	0.478	0.524	0.447	0.663	0.471	0.561	0.437	0.382	0.42	0.438	0.771	0.494	0.376
SVVVPYEPREV [TP53_Y220_P223R]	0.813	0.53	0.506	0.527	0.597	0.465	0.998	0.473	0.453	0.746	0.373	0.656	0.472	0.829	0.532	0.415
FDRREYSRFEK [ITGB7_Y758_YF]	0.602	0.415	0.519	0.452	0.526	0.392	0.666	0.331	0.454	0.577	0.47	0.596	0.411	0.793	0.633	0.513
SGGGSYGSGGG [KRT1_Y539]	0.626	0.312	0.282	0.351	0.372	0.356	0.491	0.412	0.346	0.599	0.349	0.512	0.271	0.526	0.608	0.444
HDRNTYEKYLG [TF_Y666]	2.4	0.781	0.759	0.676	0.909	0.668	0.796	1.41	1.4	0.453	0.765	0.731	1.82	0.935	0.874	1.21
VTSLKYSTSPY [BRIP1_Y916]	0.751	0.52	0.498	0.487	0.467	0.451	0.655	0.523	0.516	0.6	0.493	0.537	0.542	0.754	0.42	0.43
PQGVGYPPQQQ [EP300_Y2219]	0.962	0.44	0.619	0.897	0.871	0.46	1.17	0.573	0.612	0.915	0.619	0.655	0.579	0.92	0.685	0.428
VEDQFYCVDCF [FHL1_Y208_YF]	1.61	0.748	0.697	0.703	0.863	0.874	1.29	1.44	0.926	1.35	5.12	0.867	1.73	1.71	1.64	1.32
SMGMKYLEEKN [ZAP70_Y451]	0.717	0.518	0.463	0.493	0.506	0.454	0.879	0.7	0.398	0.727	0.383	0.644	0.434	0.962	0.86	0.638
IMICAYLLHRG [PTEN_Y138_V133I]	1.3	0.617	0.687	0.534	0.77	0.827	1.35	0.709	0.525	1.23	0.536	1.19	0.566	1.23	1.16	0.695
HVPEEYKPKQG [SAXO2_Y37]	0.827	0.493	0.434	0.366	0.519	0.386	1.17	0.449	0.62	0.867	0.423	0.943	0.685	0.956	0.674	0.512
NTGLEYIKFTW [HRH1_Y386_D385E]	1.16	0.572	0.633	0.76	0.851	0.449	1.09	0.531	0.58	1.37	0.474	0.657	0.495	1.11	0.778	0.614
